Results from paper PMC10998830.
Values joined by “and” are separate entries in the source; they are usually repeats but may differ in a detail not shown here. Equal entries are not always repeated.

Key:
purified protein = substrate: Nc1ncnc2c1ncn2[C@@H]1O[C@H](COP(=O)(O)OP(=O)(O)O)[C@@H](O)[C@H]1O; test: purified protein; type: biochemical, Acinetobacter baumannii; details: 25 °C, pH 8.5, 1.6 mM PRPP, 15 mM MgCl2, 100 mM KCl, unlabelled enzyme
[1] = substrate: O=P(O)(O)OC[C@H]1O[C@H](OP(=O)(O)OP(=O)(O)O)[C@H](O)[C@@H]1O; test: purified protein, by the assay type; details: 25.0 °C
Procedure: To assess the effect of increased AbHisGS mass in catalysis, we purified AbHisGS from heterologous expression in M9 medium supplemented with different isotopes to produce AbHisGS carrying natural isotope abundance (unlabelled AbHisGS), [^15N]AbHisGS, [^13C,^15N]AbHisGS, and [^2H,^13C,^15N]AbHisGS (the ^2H is incorporated in non-exchangeable positions) (Supplementary Fig. 1). […] AbATPPRT substrate saturation curves at 25 °C using unlabelled AbHisGS produced from heterologous expression in LB medium by our published protocol[30] and unlabelled AbHisGS generated here from expression in M9 medium and in M9 with high cell density induction[47] […] S5 Supplementary Figure 4 Substrate saturation curves for unlabelled AbATPPRT with AbHisGS purified from cultures grown in M9 and M9 with high cell density compared with previously published data (reproduced here) for unlabelled AbATPPRT with AbHisGS purified from cultures grown in LB. For the M9 and M9 high cell density curves, all data points are shown for two independent measurements, except for the previously published LB curves, where data are the mean of two independent measurements. […] Kinetics and thermal denaturation data were analysed by the nonlinear regression function of SigmaPlot 14.0 (SPSS Inc.). […] The concentration of ATPPRT at any concentration of AbHisGS and AbHisZ was calculated according to Eq. (4). […]

[2] = substrate: Nc1ncnc2c1ncn2[C@@H]1O[C@H](COP(=O)(O)OP(=O)(O)O)[C@@H](O)[C@H]1O; test: purified protein, by the assay type; details: 25.0 °C
Procedure: (§1) Kinetics and thermal denaturation data were analysed by the nonlinear regression function of SigmaPlot 14.0 (SPSS Inc.). Thermal denaturation data were fitted to Eq. (1). Substrate saturation curves at a fixed concentration of the co-substrate were fitted to Eq. (2). Initial rate data at varying concentrations of HisZ were fitted to Eq. (3). The concentration of ATPPRT at any concentration of AbHisGS and AbHisZ was calculated according to Eq. (4). Histidine dose-response data were fitted to Eq. (5). Single-turnover data with WT-AbATPPRT isotopologues were fitted to Eq. (6). Plots of kcat ratios against relative viscosity were fitted to Eq. (7). Temperature-rate profile for AbHisGS was fitted to Eq. (8). Single-turnover data with R70A-AbATPPRT isotopologues were fitted to Eq. (9). In Eqs. […] While kcats for [^13C,^15N]AbHisGS and [^2H,^13C,^15N]AbHisGS are marginally lower than for unlabelled AbHisGS and [^15N]AbHisGS, the overlapping nature of most data points in Fig. 1c disagrees with distinguishable heavy-enzyme kinetic isotope effects on kcat (^HEkcat). […] This was further probed by pre-steady-state kinetics under multiple-turnover conditions. The AbHisGS reaction had been shown not to have a burst of product formation, which is reproduced here for unlabelled AbHisGS, whose traces overlap with those for [^2H,^13C,^15N]AbHisGS (Supplementary Fig. 5). S5 Supplementary Figure 4 Substrate saturation curves for unlabelled AbATPPRT with AbHisGS purified from cultures grown in M9 and M9 with high cell density compared with previously published data (reproduced here) for unlabelled AbATPPRT with AbHisGS purified from cultures grown in LB. For the M9 and M9 high cell density curves, all data points are shown for two independent measurements, except for the previously published LB curves, where data are the mean of two independent measurements. Lines are best fit of the data to equation (2): solid line for M9 high cell density curves, long-dashed line for M9 curves, and short-dashed line for previously published LB curves. […]

[3] = substrate: Nc1ncnc2c1ncn2[C@@H]1O[C@H](COP(=O)(O)OP(=O)(O)OP(=O)(O)O)[C@@H](O)[C@H]1O; test: purified protein, by the assay type; details: 25.0 °C
Procedure: as §1

[4] = substrate: O=P(O)(O)OC[C@H]1O[C@H](OP(=O)(O)OP(=O)(O)O)[C@H](O)[C@@H]1O; test: purified protein, by the assay type; details: 25.0 °C; remark: listed apart in the source
Procedure: as §1

[5] = substrate: Nc1ncnc2c1ncn2[C@@H]1O[C@H](COP(=O)(O)OP(=O)(O)OP(=O)(O)O)[C@@H](O)[C@H]1O; test: purified protein, by the assay type; details: 25.0 °C; remark: listed apart in the source
Procedure: as §1, with “5).” for “5). S5 Supplementary Figure 4 Substrate saturation curves for unlabelled AbATPPRT with AbHisGS purified from cultures grown in M9 and M9 with high cell density compared with previously published data (reproduced here) for unlabelled AbATPPRT with AbHisGS purified from cultures grown in LB. For the M9 and M9 high cell density curves, all data points are shown for two independent measurements, except for the previously published LB curves, where data are the mean of two independent measurements. Lines are best fit of the data to equation (2): solid line for M9 high cell density curves, long-dashed line for M9 curves, and short-dashed line for previously published LB curves.”

[6] = substrate: O=P(O)(O)OC[C@H]1O[C@H](OP(=O)(O)OP(=O)(O)O)[C@H](O)[C@@H]1O; test: purified protein, by the assay type; details: 25.0 °C; remark: listed apart in the source
Procedure: as §1, with “5).” for “5). S5 Supplementary Figure 4 Substrate saturation curves for unlabelled AbATPPRT with AbHisGS purified from cultures grown in M9 and M9 with high cell density compared with previously published data (reproduced here) for unlabelled AbATPPRT with AbHisGS purified from cultures grown in LB. For the M9 and M9 high cell density curves, all data points are shown for two independent measurements, except for the previously published LB curves, where data are the mean of two independent measurements. Lines are best fit of the data to equation (2): solid line for M9 high cell density curves, long-dashed line for M9 curves, and short-dashed line for previously published LB curves.”

B1: AbATPPRT (Acinetobacter baumannii ACICU) (protein)
chain: MNDVRNDDPNFNVMGNFDHGLTLALSKGRILKETLPLLATAGINLLEDPEKSRKLIFPTTHKQVRILILRASDVPTYVENGAADLGVAGKDVLMEHGAQHVYELLDLQIAKCKLMTAGKVGMERPKGRLKIATKYVNLTRQYYASLGEQVDVIKLYGSMELAPLVGLGDYIVDVVDTGNTLRANGLEPLEEICKVSSRLIVNKASFKRKQVLLNPIISQLEQAVQSR
notes: hetero-octameric holoenzyme (two HisGS dimers flanking a HisZ tetramer) reconstituted in vitro from separately purified recombinant AbHisGS (E. coli BL21(DE3)) and AbHisZ; unlabelled (natural isotope abundance)
- Km (purified protein): 350 ± 40 µM
- kcat (purified protein): 16.6 ± 0.4 s⁻¹
- Km [1]: 96 µM
- kcat [1]: 16.6 ± 0.4 s⁻¹
- Km [2]: 300 µM and 280 µM
- Km [3]: 130 ± 20 µM
- Km [4]: 120 ± 10 µM
- Km [5]: 170 ± 30 µM and 210 ± 30 µM
- Km [6]: 80 µM and 85 µM
